Laboratory results from patent publication US8394929B2, “Nogo receptor-mediated blockade of axonal growth” (Yale University, priority 2000, dated 2013).
Where two headings read alike, the source gives them in different places.

Legend:
[1] = tested on: GST-Nogo-66 inhibition of neurite outgrowth; assay: Blockade of Nogo-induced inhibition of neurite outgrowth in chick DRG neurons; format: cell-based
Experimental: (§1) For all experiments involving cell culture, the following methods were employed. The culture of embryonic chick E10 and E12 dorsal root ganglion explants and dissociated neurons utilized methods described for E7 dorsal root ganglion cultures (Takahashi et al., (1998) Nature Neurosci. 1, 487-493; Takahashi et al., (1999) Cell 99, 59-69; Goshima et al., (1995) Nature 376, 509-514; Jin & Strittmatter, (1997) J. Neurosci. […]). NGF-differentiated PC12 cells were cultured as described (Strittmatter et al., (1994) J. Neurosci. 14, 2327-2338). Embryonic spinal cord explants (rat E10 or chick E5) were cultured for 7-14 days in the presence of PDGF-AA to induce differentiation of some cells into mature oligodendrocytes (Vartanian et al., (1999) Proc. Natl. Acad. Sci. USA 96, 731-735). The procedure for growth cone collapse assays is identical to that for analysis of Sema3A-induced growth cone collapse (Takahashi et al., (1998) Nature Neurosci. 1, 487-493; Takahashi et al., (1999) Cell 99, 59-69; Goshima et al., (1995) Nature 376, 509-514; Jin & Strittmatter, (1997) J. Neurosci. 17, 6256-6263). The method for analysis of total neurite outgrowth has also been described (Goshima et al., (1995) Nature 376, 509-514; Jin & Strittmatter, (1997) J. Neurosci. 17, 6256-6263; Strittmatter et al., (1994) J. Neurosci. 14, 2327-2338). In outgrowth assays, proteins and peptides were added one hour after plating to minimize any effect on the total number of adherent cells. To test the effect of substrate-bound GST or GST-Nogo, the protein solutions were dried on poly-L-lysine coated glass, washed and then coated with laminin. For E12 cultures, the neuronal identity of cells was verified by staining with anti-neurofilament antibodies (2H3, Develomental Studies Hybridoma Bank) and neurites were traced by observation of rhodamine-phalloidin staining of F-actin in processes.
Peptide 140 was tested for its ability to neutralize neurite outgrowth inhibition caused by the addition of GST fused to residues #1055-1120 of hNogoA (designated Nogo-66 in FIG. 16e). Plastic chamber slides were coated with 100 μg ml^−1 poly-L-lysine, washed, and dried. 3 μl drops of PBS containing GST-hNogoA(residues #1055-1120) were spotted and dried. Slides were then rinsed and coated with 10 μg ml fs24^−1 laminin before addition of dissociated E12 chick DRGs. Peptide 140 was added at the time of cell plating. Cultures were grown for 5-7 h after which neurite outgrowth was assessed.
Although the role of the GPI anchor may be to regulate NgR cellular compartmentalization, another possible role for the GPI linkage is to provide a NgR cleavage site. Cleaving NgR could serve to affect hNogo-A (1055-1120) signaling by rendering a neuron insensitive to hNogo-A (1055-1120) and by releasing soluble NgR that could then act on adjacent cells to modulate hNogo-A (1055-1120) signaling. To determine if soluble mNgR modulates hNogo-A (1055-1120)-dependent inhibition, a soluble mNgR was generated by inserting a truncated cDNA encoding mNgR residues 1-348 in frame with a myc-His carboxy tag into pcDNA3.1. The resulting plasmid expressing mNgREcto was transfected into HEK293T cells, and conditioned media containing mNgREcto protein was collected. To test the effect of mNgREcto on Nogo signaling, E13 dissociated DRGs were plated in the presence of hNogo-A (1055-1120) or myelin. The inhibitors were presented in either soluble or substrate-bound forms. For neurite outgrowth assays on hNogo-A (1055-1120) or myelin substrates, Permanox chamber slides were coated with 100μ, fs24 g ml^−1 poly-L-Lysine, washed, and then 3-μl drops of phosphate-buffered saline (hereinafter “PBS”) containing 0, 10, 50, or 150 ng of GST-hNogo-A (1055-1120) or myelin were spotted and dried. GST-hNogo-A (1055-1120) and myelin were prepared as previously described (GrandPre et al., supra; Fournier et al., J. Cell Biol. 149:411-421, 2000). After three PBS washes, slides were coated with 10 μg ml^−1 laminin. […]

[2] = tested on: chick E12 dorsal root ganglion growth cones; assay: Growth cone collapse assay in chick dorsal root ganglion explants; format: cell-based
Experimental: as §1
The expression of recombinant Nogo in HEK293T cells allows a rigorous test of whether this protein has axon outgrowth inhibiting effects. Washed membrane fractions from vector- or hNogo-A-Myc-transfected HEK293T cells were added to chick E12 dorsal root ganglion explant cultures. Growth cone morphology was assessed after a thirty minute incubation at 37° C. by fixation and rhodamine-phalloidin staining.
Briefly, for growth cone collapse, DRG explants were plated on plastic chamber slides precoated with 100 μg ml^−1 poly-L-lysine and 10 μg ml^−1 laminin. Cultures were grown 14-16 h prior to treatment.

Question: Which results are given for “Pep2-41: 2-41 fragment of the 66 amino acid region of Nogo, acetylated and amidated at the termini (Ac-RIYKGVIQAIQKSDEGHPFRAYLESEVAISEELVQKYSNS-NH2)”?
Answer: blockade of Nogo-induced neurite outgrowth inhibition (in words) [1]: can reverse the inhibition of neurite outgrowth; blockade of Nogo-induced neurite outgrowth inhibition (in words) ([1]; listed as 2-41 fragment): blocks

Question: With “Peptide 140: synthetic peptide of amino acids #1055-1094 of the human NogoA protein, acetylated and amidated at the termini (Ac-RIYKGVIQAIQKSDEGHPFRAYLESEVAISEELVQKYSNS-NH2; UniProt Q9NQC3 1055-1094, looked up, fragment)” as the molecule, how does the “blockade of Nogo-induced neurite outgrowth inhibition (in words)” value [1] read?
Answer: The value was “extensive outgrowth is observed”.

Question: And the “growth cone collapse activity (in words)” value ([2]; added to DRG explant cultures, thirty minutes)?
Answer: Its value is “does not induce significant growth cone collapse”.

B1: AP-Nogo: fusion protein of His6 tag, placental alkaline phosphatase (AP) and the 66 amino acid active domain of Nogo (protein)
chain: HHHHHHIIPVEEENPDFWNREAAEALGAAKKLQPAQTAAKNLIIFLGDGMGVSTVTAARILKGQKKDKLGPEIPLAMDRFPYVALSKTYNVDKHVPDSGATATAYLCGVKGNFQTIGLSAAARFNQCNTTRGNEVISVMNRAKKAGKSVGVVTTTRVQHASPAGTYAHTVNRNWYSDADVPASARQEGCQDIATQLISNMDIDVILGGGRKYMFRMGTPDPEYPDDYSQGGTRLDGKNLVQEWLAKRQGARYVWNRTELMQASLDPSVTHLMGLFEPGDMKYEIHRDSTLDPSLMEMTEAALRLLSRNPRGFFLFVEGGRIDHGHHESRAYRALTETIMFDDAIERAGQLTSEEDTLSLVTADHSHVFSFGGYPLRGSSIFGLAPGKARDRKAYTVLLYGNGPGYVLKDGARPDVTESESGSPEYRQQSAVPLDEETHAGEDVAVFARGPQAHLVHGVQEQTFIAHVMAFAACLEPYTACDLAPPAGTTDAAHPGRIYKGVIQAIQKSDEGHPFRAYLESEVAISEELVQKYSNSALGHVNCTIKELRRLFLVDDLVDSLK
Question: B1 was tested. Which “relative potency in growth cone collapse (comparator in the words)” value [2] did it give?
Answer: The value was “slightly more potent than GST-Nogo”.

Question: And the “growth cone collapse (in words)” value ([2]; conditioned medium, AP-fusion protein final concentration 20 nM, E12 chick DRG)?
Answer: The value was “potent growth-cone-collapsing agent”.

B2: NgR-ecto: secreted fragment of amino acid residues 1-348 of the murine NgR, in HEK293T conditioned medium (protein)
chain: CPGACVCYNEPKVTTSCPQQGLQAVPTGIPASSQRIFLHGNRISHVPAASFQSCRNLTILWLHSNALARIDAAAFTGLTLLEQLDLSDNAQLHVVDPTTFHGLGHLHTLHLDRCGLRELGPGLFRGLAALQYLYLQDNNLQALPDNTFRDLGNLTHLFLHGNRIPSVPEHAFRGLHSLDRLLLHQNHVARVHPHAFRDLGRLMTLYLFANNLSMLPAEVLMPLRSLQYLRLNDNPWVCDCRARPLWAWLQKFRGSSSEVPCNLPQRLADRDLKRLAASDLEGCAVASGPFRPIQTSQLTDEELLSLPKCCQPDAADKASVLE
modifications: left off: small tags and cut ends
notes: secreted fragment of amino acid residues 1-348 of the murine NgR, in HEK293T conditioned medium
Question: Which results are given for B2?
Answer: blockade of Nogo-induced neurite outgrowth inhibition (in words) [1]: blocks Nogo-66-induced inhibition of neurite outgrowth; blockade of Nogo-induced neurite outgrowth inhibition (in words) ([1]; listed as NgREcto): partially reversed

B3: GST-Nogo: GST fusion protein of the 66 amino acid lumenal-extracellular fragment of Nogo-A, expressed in E. coli (protein)
chain: RIYKGVIQAIQKSDEGHPFRAYLESEVAISEELVQKYSNSALGHVNCTIKELRRLFLVDDLVDSLK
modifications: also: GST fusion protein
notes: GST fusion protein of the 66 amino acid lumenal-extracellular fragment of Nogo-A, expressed in E. coli
Question: Which results are given for B3?
Answer: relative potency in growth cone collapse (comparator in the words) [2]: even more potent than the urea-extracted protein; relative potency in growth cone collapse (comparator in the words) ([2]; listed as GST-Nogo-66): two orders of magnitude more potent than Amino-Nogo; concentration acutely altering growth cone morphology (as low as) ([2]; soluble GST-Nogo purified on glutathione-Sepharose resin): 1 nM; growth cone morphology (in words) ([2]; soluble form at 100 nM, chick E12 DRG): collapses chick E12 dorsal root ganglion growth cones; EC50 ([2]; urea-extracted GST-Nogo, chick E12 dorsal root ganglion neurons, read-out: EC50 growth cone collapsing activity): 50 nM
